From patent publication US20150376269A1 (Regeneron, published 2015)

T1: SRA.mmh
T1 construct: also called SRA.mmh (CHO)
T1 antigen: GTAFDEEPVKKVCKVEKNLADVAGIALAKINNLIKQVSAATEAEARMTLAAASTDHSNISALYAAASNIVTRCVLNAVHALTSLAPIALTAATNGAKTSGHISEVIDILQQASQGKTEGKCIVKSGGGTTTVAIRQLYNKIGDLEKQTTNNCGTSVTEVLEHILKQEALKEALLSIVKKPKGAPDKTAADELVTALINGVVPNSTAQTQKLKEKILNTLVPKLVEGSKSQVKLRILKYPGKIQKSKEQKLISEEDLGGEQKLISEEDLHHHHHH

T2: serum resistance-associated protein (SRA) from Trypanosoma brucei rhodesiense, recombinant SRA (SEQ ID NO: … (Trypanosoma brucei rhodesiense, UniProt O96637 31-274))
T2 construct: also called SRA protein
T2 sequence: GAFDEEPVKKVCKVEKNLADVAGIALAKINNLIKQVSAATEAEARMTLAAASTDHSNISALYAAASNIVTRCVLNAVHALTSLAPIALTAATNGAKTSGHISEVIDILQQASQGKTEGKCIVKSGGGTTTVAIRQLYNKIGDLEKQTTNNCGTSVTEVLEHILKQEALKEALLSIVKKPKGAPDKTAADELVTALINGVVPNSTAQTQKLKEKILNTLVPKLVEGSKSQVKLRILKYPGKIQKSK

B1: H1H10061P (antibody, V domains shown)
VH: QVQLVESGGGVVQPGNSLRLSCAASGFTFSAYGMHWVRQAPGKGLEWVAVISYDGSNEFYADSVKGRFTIFRDNSKNMLYLQMNSLRVEDTSIYYCAKDRGLGVYYFFYGMDVWGQGTTVTVSS
VL: DIVMTQSPDSLVVSLGERATINCKSSQSLLYSSSNNNYLTWYQQKPGRPPKLLIYWASTRESGVPDRFSGSGSGTDFTLTISSLQAEDVAIYYCQQNYITPLTFGGGTKVEIK
notes: Fully human antibody with human IgG1 Fc (prefix H1H)
B2: apoL1 peptide (SEQ ID NO: 297) (peptide)
peptide: VYESKHLHEGAKSETAEELKKVAQELEEKLNILNNNYKILQADQEL
notes: Peptide of human apolipoprotein L1 used in the H/D exchange experiment
B3: H2bM10093N (antibody, V domains shown)
VH: EVQLVESGGGLVKPGGSLRLSCVASGFTLSGYSMNWVRQAPGKGLEWVSSISTSSSYIYYADSVQGRFTISRDNAKNSLYLQMNSLRAEDTAVYYCVRKGANWIYFDYWGQGTLVTVSS
VL: DIQMTQSPSSVSASVGDRVTITCRASQGISSLLAWFQQKPGKAPNLLIYAASSLQSGVPSRFSGSGSGTDFTLTISSLQPEDFATYYCQQAKSFPFTFGPGTKVDIK
notes: Chimeric antibody, human variable domains and mouse constant domains; also called H2aM10093N; H2M10093N
B4: H1H10041P (antibody, V domains shown)
VH: QVQLVQSGAEVRKPGSSMKVSCATSGGNFRSYTINWVRQAPGQGLEWMGGVFPAVGTRIYAQKFQGRVTISTDESTTIAYMELNSLVPEDTAVYYCARSFNSPFDFWDQGTLVTVSS
VL: AIQMTQSPSSLSASVGDRVTLTCRASQDIRNDLHWFQQTPGKAPRLLIYSASNLQSGVPSRFSGTGSGTDFTLTFSSLQPEDFATYYCLQDYSYPYTFGQGTKLEIK
notes: as for B1

How the values were obtained:
SRA.mmh [1] = target: T1, SRA.mmh; experiment: Octet, mAb-2 at 50 ug/mL on captured SRA.mmh after negative control α-PRLR H1H6800P as mAb-1 (row 32 (-))
[2] = target: T2, serum resistance-associated protein …; experiment: SPR, mAb captured, 50 nM SRA, pH 4.5, 25C
[3] = target: T2, serum resistance-associated protein …; experiment: SPR, mAb captured, 25C, assoc. pH 7.4, dissoc. pH 4.5
Method: (§1) Equilibrium dissociation constants (KD) values for SRA binding to selected purified anti-SRA monoclonal antibodies were determined using a real-time surface plasmon resonance biosensor assay on a Biacore T200 instrument. […] SRA binding to the captured monoclonal antibodies was monitored for 4 min while the dissociation of mAb bound SRA was monitored for 7 min. Two different assays formats were adopted to characterize kinetics of SRA binding—(i) regular kinetics and (ii) pH4.5 chase. Regular kinetics experiments were performed using pH7.4 buffer as the running buffer and both the association and dissociation was performed in pH7.4. For the chase format, association and dissociation were performed in pH7.4 buffer and pH4.5 buffer respectively.
(§2) Kinetic association (kₐ) and dissociation (kd) rate constants were determined by processing and fitting the data to a 1:1 binding model using Scrubber 2.0c curve fitting software. Only the dissociation rate (kd) was calculated for the pH4.5 chase experiment. Binding dissociation equilibrium constants (KD) and dissociative half-lives (t½) were calculated from the kinetic rate constants as:

[4] = target: T2, serum resistance-associated protein …; experiment: SPR, mAb captured, pH 4.5, 25C; competitor biotin-apoL1 peptide
[5] = target: T2, serum resistance-associated protein …; experiment: SPR, mAb captured, 25C, pH 7.4
Method: as §1, §2

[6] = target: T2, serum resistance-associated protein …; experiment: SPR, mAb captured, pH 4.5, 25C; competitor biotin-mutant apoL1 peptide
[7] = target: T2, serum resistance-associated protein …; experiment: SPR, 25C, t1/2 pH 7.4 over pH 4.5
Method: as §1, §2

SRA.mmh [8] = target: T1, SRA.mmh; experiment: Octet, SRA.mmh captured on anti-Penta-His tips, mAb-1 at 50 ug/mL for 5 min, 25 C, pH 7.4
[9] = target: T2, serum resistance-associated protein …; experiment: H/D exchange MS, SRA-apoL1 peptide complex, pH 5.0
[10] = target: T2, serum resistance-associated protein …; experiment: SPR, mAb captured, 25C, pH 7.4; pH 7.4, 25 C
Method: as §1, §2

Row | Binder | Binding of mAb-2 to SRA Pre-complexed with mAb-1 (SRA.mmh [1]) | 50 nM SRA binding (RU) [2] [RU] | t ½ [3] [h] | 50 nM SRA + 5 uM apoL1 peptide binding (RU) [4] [RU] | % Blocking, apoL1 peptide [4] [%] | Kd [5] [nM] | kon [5] [M⁻¹ s⁻¹] | t ½ [5] [h] | 50 nM SRA + 5 uM mutant apoL1 peptide binding (RU) [6] [RU] | % Blocking, Mutant apoL1 peptide [6] [%] | t ½ ratio pH 7.4/pH 4.5 [7] | 50 ug/mL mAb 1 Bound (nm) (SRA.mmh [8]) | binding result [9] | koff [10] [s⁻¹]
1 | B1 | 1.53 | 79 | 1.82 | -5 | 100 | ≤ 0.0308 | 1.62e+06 | ≥ 3.85 | 75 | 5 | ≥ 2 | 1.53 |  | 
2 | B2 |  |  |  |  |  |  |  |  |  |  |  |  | binds | 
3 | B3 | 1.32 | 138 | 0.02 | 4 | 97 | 0.948 | 521000 | 0.383 | 122 | 12 | 20 | 1.48 |  | 0.000494
4 | B4 | 1.57 | 88 | 2.75 | 3 | 97 | ≤ 0.0277 | 1.8e+06 | ≥ 3.85 | 83 | 5 | ≥ 1 | 1.69 |  | 
